Results reported in article PMC2814116 (Journal of Experimental Botany, 2009).

Target: the molecule itself
Experiment: SEC

B1: Recombinant PCNA2 protein of Arabidopsis thaliana (AtPCNA2) (natural protein, UniProt Q9ZW35 1-264, looked up)
chain: MLELRLVQGSLLKKVLEAVKDLVNDANFDCSTTGFSLQAMDSSHVALVSLLLRSEGFEHYRCDRNLSMGMNLGNMSKMLKCAGNDDIITIKADDGSDTVTFMFESPTQDKIADFEMKLMDIDSEHLGIPDAEYHSIVRMPSGEFSRICKDLSSIGDTVVISVTKEGVKFSTAGDIGTANIVLRQNTTVDKPEDAIVIEMNEPVSLSFALRYMNSFTKATPLSETVTISLSSELPVVVEYKVAEMGYIRYYLAPKIEEEEDTKPE
B1: binds.
